Source: the supplement of paper PMC10567573

B1: LOXL2 (parent)
chain: RLLRFSSQIHNNGQSDFRPKNGRH

Variants of: B1
Test: protein stability index of a GFP-peptide fusion (GPS, HEK-293T) (PSI 1-6); higher = more stable
Conditions: c terminus: a fixed tail appended
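Further: lentivirally expressed fusions sorted by FACS into six bins by GFP to DsRed ratio, PSI derived from sequencing read proportions per bin multiplied by bin number.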

Row | Variant | protein stability index
1 | R4P | 3.86
2 | R4H | 2.74
3 | R4D | 3.16
4 | R4T | 3.09
5 | R4W | 2.15
6 | R4F | 2.32
7 | S6V | 3.85
8 | S6T | 2.46
9 | S6D | 3.81
10 | S6H | 2.37
11 | D16A | 2.36
12 | D16I | 2.17
13 | D16G | 2.12
14 | D16W | 2.37
15 | D16M | 1.77
16 | D16R | 2.23
17 | D16Q | 2.51
18 | H24I | 2.54
19 | H24P | 2.95
20 | H24L | 2.47
21 | H24C | 2.14
22 | H24T | 2.76
23 | R18D | 3.29
24 | R18K | 3.23

Row | Variant | protein stability index
25 | R18E | 3.27
26 | R18C | 2.42
27 | R18I | 2.61
28 | R18N | 2.87
29 | F5Q | 3.6
30 | F5R | 3.69
31 | F5K | 3.29
32 | F5H | 3.95
33 | F5A | 3.46
34 | F5L | 2.54
35 | F5T | 3.99
36 | F5C | 3.06
37 | N12R | 2.52
38 | N12G | 3.16
39 | N12A | 2.89
40 | N12I | 2.27
41 | N12D | 3.69
42 | N12E | 2.57
43 | N12L | 2.15
44 | N12C | 2.36
45 | N12Q | 2.57
46 | K20N | 2.92
47 | K20Y | 2.23
48 | K20F | 2.22

Row | Variant | protein stability index
49 | K20P | 2.47
50 | K20I | 2.17
51 | K20T | 3.01
52 | K20W | 2.08
53 | N11F | 2.23
54 | N11E | 2.86
55 | N11I | 2.39
56 | N11R | 2.2
57 | N11Q | 2.46
58 | N11G | 2.23
59 | N11P | 2.65
60 | L3I | 3.14
61 | L3M | 3.37
62 | L3D | 3.98
63 | L3A | 3.59
64 | L3P | 3.91
65 | L3W | 2.64
66 | L3E | 4.34
67 | Q14V | 2.15
68 | Q14N | 2.79
69 | S15I | 2.72
70 | S15K | 2.42
71 | S15H | 3.05
72 | S15R | 2.55

Row | Variant | protein stability index
73 | S15C | 2.65
74 | S15F | 2.28
75 | S15A | 2.61
76 | S15Q | 2.77
77 | L2P | 4.63
78 | L2Y | 3.35
79 | L2A | 3.68
80 | L2E | 3.98
81 | L2G | 4.6
82 | L2I | 3.28
83 | L2M | 3.27
84 | R1T | 2.57
85 | R1N | 2.65
86 | R1K | 3.15
87 | R1W | 1.65
88 | R1L | 1.72
89 | R1G | 3.12
90 | R1Y | 1.71
91 | H10K | 2.8
92 | H10M | 2.47
93 | H10R | 2.36
94 | H10Q | 2.83
95 | H10C | 2.46
96 | H10Y | 1.87

Row | Variant | protein stability index
97 | H10D | 3.68
98 | H10E | 3.43
99 | H10F | 2.13
100 | F17D | 3.75
101 | F17A | 2.95
102 | F17L | 2.75
103 | F17T | 3.31
104 | F17H | 3.52
105 | F17S | 3.15
106 | G22S | 3.02
107 | G22Y | 2.71
108 | G22K | 2.62
109 | G22T | 2.39
110 | G22L | 2.49
111 | G22N | 2.58
112 | G22F | 2.11
113 | R23D | 2.99
114 | R23C | 1.97
115 | R23T | 3.29
116 | R23S | 3.14
117 | R23A | 2.36
118 | R23I | 1.82
119 | R23Q | 2.4
120 | Q8W | 1.77

Row | Variant | protein stability index
121 | Q8I | 2.23
122 | Q8L | 2.29
123 | Q8N | 2.95
124 | Q8C | 2.21
125 | Q8Y | 2.05
126 | Q8P | 3.54
127 | Q8V | 2.95
128 | Q8E | 3.17
129 | I9Q | 3.14
130 | I9R | 3.24
131 | I9S | 3.04
132 | I9N | 3.19
133 | I9A | 2.81
134 | I9T | 3.14
135 | I9F | 2.32
136 | I9H | 3.26
137 | P19K | 2.71
138 | P19A | 2.67
139 | P19Q | 2.7
140 | P19Y | 2.37
141 | P19R | 2.41
142 | P19S | 2.98
143 | P19E | 3.29
144 | P19I | 2.58

Row | Variant | protein stability index
145 | P19G | 2.78
146 | N21Q | 2.71
147 | N21P | 2.4
148 | N21H | 2.23
149 | N21L | 2.17
150 | N21W | 1.52
151 | N21K | 2.85
152 | N21M | 2.27
153 | N21F | 2.04
154 | N21G | 2.49
155 | N21E | 2.97
156 | S7G | 2.46
157 | S7H | 2.44
158 | S7W | 2.06
159 | S7C | 2.41
160 | S7K | 2.21
161 | S7M | 1.79
162 | S7Y | 2.25
163 | G13N | 2.94
164 | G13L | 2.39
165 | G13C | 1.97
166 | G13Q | 3.2
167 | G13K | 2.15
